Key:
purified protein [1] = substrate: O=Cc1cccc(Oc2ccccc2)c1; experiment: purified protein; format: biochemical, Aedes aegypti; details: saturating NAD+, 33 mM phosphate pH 8.2, 1 mM EDTA, 0.1 mM pyrazole, 37°C
purified protein [2] = substrate: NC(=O)c1ccc[n+]([C@@H]2O[C@H](COP(=O)(O)OP(=O)(O)OC[C@H]3O[C@@H](n4cnc5c(N)ncnc54)[C@H](O)[C@@H]3O)[C@@H](O)[C@H]2O)c1; experiment: purified protein; format: biochemical, Aedes aegypti; details: saturating PBald, 33 mM phosphate pH 8.2, 1 mM EDTA, 0.1 mM pyrazole, 37°C, varied: cofactor

B1: ALDH9948 (Aedes aegypti) (protein)
chain: MANANPEIKYTQLFINNEFVDAVSGKVFPTVNPSTGKKIVDIAEGDKADVDLAVQAAKAAFQRSSKWRQMDASARGKLIYKLADLMERDMHQIASLESLDNGKPYMSAVYDVYGSMNCLRYYAGWTDKVCGETVPSDGPHLTYTRKEPFGVVGQIIPWNYPLLMLAWKWGPALAAGCTIVMKPAEQTPLTALYMCSLVKEAGFPPGVVNMVPGYGPTAGNAITMHPDIRKVAFTGSVEVGKIVMAGAASNLKKVSLELGGKSPLVICDDVDVNEAAQIAYTGVFENMGQCCIAATRTFVQEGIYDAFVQKATELAKGRKVGNPFSQGIQHGPQIDDIQFKKILGFIETGKKEGAKLETGGVQVGEEGYFIEPTVFSNVTDEMTIAKEEIFGPVQSIIKFKTLDEAIERANATSFGLAAGIVTKNLNNALTFSNAVEAGSVWVNTYLAVSNQAPFGGYKQSGVGREMGKEGIEEYLETKTVSIKLPSKV
notes: full length, N-terminal His6 fusion from pET100-D/TOPO, E. coli BL21 Star (DE3), HisTrap Ni purified, about 65 kDa on SDS-PAGE; cDNA from PMD-R strain
Km (purified protein [1]): 0.1538 ± 0.0308 µM
Km (purified protein [2]): 0.1391 ± 0.0279 µM

B2: ALDH14080 (Aedes aegypti) (protein)
chain: MANPNQEIKYTKLFINNQFVDSQSGKTFPTLNPATGQKIVDVAEGDKADVDIAVQAAKTAFARSSAWRQMDASARGKLLHKLADLMERDINVLANLESLDNGKAFGDSVFDMNCAIDTFRYYAGWADKIHGSTVPSDGPVMTYIRKEPVGVVGQIIPWNYPVLMLTWKWAPALATGCTLVLKPAEQTPLSALYMAALSKEAGFPDGVINVVNGYGPTVGAAIVNHAEIRKVAFTGSVETGRLITEGSSKSNLKRVSLELGGKSPLVVFDDFDVDEAVEIAHNAIFANHGQNCCAGSRTFVQEGVYDKFVAKAAEMAKARKVGDAFAEGTQQGPQVDEEQLNKILGFFESASKEGAKLQTGGKRHGNVGYFVEPTVYSDVTDEMRIAREEIFGPVQSILKFKTLDEVIERANRTEYGLAAGVLTNNLNNALVFSNAVEAGSVWVNCYDYVMPTTPFGGFKQSGHGRELGYDGIELYTETKTVTIKLPSKV
notes: as for B1
Km (purified protein [2]): 0.1938 ± 0.0345 µM
